What was measured:
RhCMVIL10 = RhCMVIL10 (rhesus cytomegalovirus (printed as …))
cellular RhIL10 [1] = target: T1, cellular RhIL10 (rhesus macaque, UniProt P51496 19-178); assay: SPR, ratio of KD values
T1 construct: also called Rhesus IL10
Experimental: (§1) Following the association phase, dissociation was monitored for 720 seconds. The binding parameters were extracted from the sensorgrams by fitting the data to a 1:1 binding model.
(§2) Surface Plasmon Resonance (SPR): SPR data collection and analysis was performed using a Biacore T-200 (GE healthcare). […] Sensorgrams were fit to appropriate models using Biacore T-200 evaluation software version 1.0.

cellular RhIL10 [2] = target: T1, cellular RhIL10; assay: SPR (Biacore T-200), RhIL10R1-FC captured by anti-human FC, IL10 as analyte, 1:1 model
Experimental: as §1, §2

T1 sequence (P51496 19-178 limits assumed): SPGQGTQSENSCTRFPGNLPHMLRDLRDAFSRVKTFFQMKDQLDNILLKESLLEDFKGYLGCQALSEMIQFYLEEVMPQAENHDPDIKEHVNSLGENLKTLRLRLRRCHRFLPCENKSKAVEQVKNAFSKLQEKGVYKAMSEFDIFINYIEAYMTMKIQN
RhCMVIL10 (rhesus cytomegalovirus (printed as …)), sequence (P51496 whole entry): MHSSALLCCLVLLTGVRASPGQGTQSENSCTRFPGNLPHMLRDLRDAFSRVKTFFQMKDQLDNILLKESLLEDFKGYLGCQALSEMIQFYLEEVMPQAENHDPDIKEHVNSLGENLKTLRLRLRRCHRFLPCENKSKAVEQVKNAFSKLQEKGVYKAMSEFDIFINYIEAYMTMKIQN

B1: RhIL10R1-FC-SLS (Fc fusion)
chain: AHGTELPSPPSVWFEAEFFHHILHWTPIPNQSESTCYEVALLRYGTGRWNSISNCSQALSYDLTAVTLDLYRSNGYWARVRAVDGSRHSNWTVTNTRFSLDEVTLTVGSVKLEIHNGFILGKIQPPRPKMAPANDTYESIFRHFREYEIAIRKVPGNFTFTHKKVKHENFSLLTSGEVGEFCVQVKPSVTSRTNKGMWSKEECVSLTRQYFTVTNVGSGGGGPSVFLFPPKPKDTLMISRTPEVTCVVVDVSQEDPDVKFNWYVNGAEVHHAQTKPRETQYNSTYRVVSVLTVTHQDWLNGKEYTCKVSNKALPAPIQKTISKDKGQPREPQVYTLPPSREELTKNQVSLTCLVKGFYPSDIVVEWESSGQPENTYKTTPPVLDSDGSYFLYSKLTVDKSRWQQGNVFSCSVMHEALHNHYTQKSLSLSGGCGTPGK
notes: also called RhIL10R1-SLS; Rh10R1-FC
Q: With B1 as the binder, how does the Kd (RhCMVIL10) read?
A: 0.0724 nM

Q: What about the koff (RhCMVIL10) of the same binder?
A: 0.00017 s⁻¹

Q: What about the kon (RhCMVIL10) of the same binder?
A: 2.35e+06 M⁻¹ s⁻¹

Q: What about the “fold greater affinity than 1F11” value (cellular RhIL10 [1]) of the same binder?
A: 4.8 fold

Q: And the Kd (cellular RhIL10 [2])?
A: 0.136 nM

Q: What about the koff (cellular RhIL10 [2]) of the same binder?
A: 0.000454 s⁻¹

Q: And the kon (cellular RhIL10 [2])?
A: 3.35e+06 M⁻¹ s⁻¹

— US20220144911A1 (UAB RESEARCH FOUNDATION, published 2022)
